According to patent US20130149329A1 (BOARD OF REGENTS FOR OKLAHOMA STATE UNIVERSITY, published 2013):

Target: T1, His-tag IpaB (Shigella flexneri 2457T IpaB with N-terminal His-tag, expressed from pET15b) (Shigella flexneri 2457T, UniProt P18011 1-580)
T1 construct: not shown: N-terminal His-tag from vector pET15b
T1 sequence: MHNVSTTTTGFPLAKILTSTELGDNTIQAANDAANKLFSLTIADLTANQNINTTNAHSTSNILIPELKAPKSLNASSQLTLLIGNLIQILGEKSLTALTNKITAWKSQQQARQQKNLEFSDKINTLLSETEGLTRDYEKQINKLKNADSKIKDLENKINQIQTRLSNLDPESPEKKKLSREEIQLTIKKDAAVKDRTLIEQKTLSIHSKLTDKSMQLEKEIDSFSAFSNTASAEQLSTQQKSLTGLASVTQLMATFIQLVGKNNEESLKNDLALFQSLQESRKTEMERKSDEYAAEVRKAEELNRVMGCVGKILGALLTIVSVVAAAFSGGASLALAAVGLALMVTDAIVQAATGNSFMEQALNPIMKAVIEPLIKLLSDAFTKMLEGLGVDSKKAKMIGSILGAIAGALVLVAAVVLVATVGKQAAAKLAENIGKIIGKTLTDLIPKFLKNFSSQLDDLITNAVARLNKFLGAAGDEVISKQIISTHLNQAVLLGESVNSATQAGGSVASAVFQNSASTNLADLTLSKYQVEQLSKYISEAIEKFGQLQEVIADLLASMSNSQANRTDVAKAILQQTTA
Experiment: co-expression and co-purification

B1: IpgC (cognate chaperone of IpaB, untagged, expressed from pACYCDuet-1) (other)
chain: MSLNITENESISTAVIDAINSGATLKDINAIPDDMMDDIYSYAYDFYNKGRIEEAEVFFRFLCIYDFYNVDYIMGLAAIYQIKEQFQQAADLYAVAFALGKNDYTPVFHTGQCQLRLKAPLKAKECFELVIQHSNDEKLKIKAQSYLDAIQDIKE
  binding result: binds
